Experimental data: the supplement of paper PMC10567573

B1: TLE6 (parent)
chain: FWHDTLTEQLWRIFAGVHDEKAKP

Variants of: B1
Assay: protein stability index of a GFP-peptide fusion (GPS, HEK-293T) (PSI 1-6); higher = more stable
Details: c terminus: a fixed tail appended
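Also: lentivirally expressed fusions sorted by FACS into six bins by GFP to DsRed ratio, PSI derived from sequencing read proportions per bin multiplied by bin number.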

Protein stability index of substitutions, site by site:
G16: Y 2.51 | W 2.23 | M 2.14 | C 1.83 | H 2.26 | P 3.4 | T 1.62 | R 1.6 | F 1.72 | K 2.12 | I 1.89 | Q 1.89 | N 2.07 | V 2.85 | E 1.9 | L 1.64 | D 2.06 | S 1.82 | A 1.88
F14: E 2.19 | A 1.65 | D 1.61 | C 2.62 | L 1.8 | N 1.45 | H 1.65 | M 2.19 | G 2.21 | R 2.4 | V 2.35 | Y 2.13 | W 1.89 | Q 1.52 | T 2.39 | S 1.75 | I 2.56 | K 2.61 | P 1.98
D19: M 2.1 | N 2.8 | P 1.8 | S 1.79 | R 2.35 | Y 2.97 | K 1.7 | I 2.08 | E 1.62 | W 3.85 | A 2.33 | C 2.06 | T 2.7 | G 1.72 | H 1.65 | F 2.61 | Q 1.22 | V 3.94 | L 1.39
L6: C 1.97 | M 1.85 | R 2.53 | V 1.75 | I 2.36 | A 2.67 | P 1.63 | F 1.58 | K 2.4 | E 1.91 | G 1.77 | Q 2.31 | D 1.46 | Y 1.11 | T 1.81 | S 2.66 | H 2.35 | N 2.31 | W 1.27
E20: F 1.82 | I 1.99 | P 1.87 | M 2.88 | T 1.91 | A 2.37 | D 2.62 | Y 2.01 | N 2.19 | K 1.87 | W 2.86 | C 1.79 | H 1.46 | S 2.41 | R 1.24 | G 1.91 | Q 1.96 | V 1.9
L10: C 1.94 | P 1.61 | Y 1.75 | T 1.74 | E 2.41 | Q 2.19 | A 2.17 | H 2.54 | M 1.88 | R 1.6 | F 1.68 | I 2.09 | K 2.59 | N 1.92 | W 2.42 | S 2.61 | D 2.34 | G 2.24 | V 2.11
E8: T 1.74 | L 2.23 | P 1.76 | K 2.04 | M 1.1 | G 1.69 | A 1.66 | H 2.52 | C 1.62 | Q 2.64 | D 2.02 | F 2.17 | V 2.95 | W 2.35 | Y 2.53 | R 1.85 | S 1.64 | I 1.66 | N 1.79
Q9: E 1.58 | S 2.04 | K 1.51 | G 2.65 | Y 1.65 | F 1.97 | V 4.83 | T 2.38 | H 2.59 | W 2.79 | M 1.74 | I 2.55 | C 3.67 | P 2.69 | L 1.79 | R 2.48 | N 2.45 | D 1.97 | A 3.78
W11: T 2.35 | M 1.76 | N 2.19 | I 1.79 | F 1.59 | C 1.99 | S 2.18 | H 2.52 | G 2.46 | V 1.56 | K 2.52 | A 2.37 | L 1.85 | R 2.22 | Y 2.87 | P 3.12 | E 2.85 | D 2.82 | Q 2.21
T7: E 1.42 | M 2.19 | Q 2.46 | I 2.04 | A 1.92 | R 1.89 | Y 2.31 | P 2.01 | C 3.13 | K 2.16 | F 2.03 | N 1.36 | S 2.07 | D 2.01 | H 2.24 | V 1.86 | L 2.3 | W 2 | G 2.28
T5: S 1.98 | G 1.46 | N 2.23 | R 1.53 | K 2.78 | Y 2.35 | E 1.91 | P 2.73 | A 1.25 | L 1.97 | C 1.34 | I 2.26 | H 2.23 | V 2.62 | Q 1.22 | M 1.96 | F 2.25 | W 1.46 | D 2.13
I13: E 2.99 | Y 2.1 | D 1.78 | P 2.85 | K 2.53 | L 1.69 | H 1.94 | F 1.96 | W 1.47 | Q 2.54 | S 1.99 | T 2.44 | R 2.02 | M 2.13 | V 1.72 | C 2.39 | A 2.02 | N 1.59
R12: I 2.73 | A 1.91 | S 2.06 | W 2.47 | M 1.52 | T 2.02 | K 2.17 | L 1.91 | P 2.43 | C 2.88 | V 1.71 | H 2.11 | F 2.21 | D 1.94 | N 2.2 | Y 1.69 | Q 1.94 | G 2.23 | E 1.63
A15: Y 1.62 | R 1.94 | K 1.81 | G 2.02 | L 2.41 | E 1.77 | C 2.23 | I 1.79 | M 1.39 | T 1.89 | D 1.86 | N 1.68 | V 2.82 | S 2.43 | F 1.73 | H 1.86 | Q 1.61 | P 2.23
V17: I 1.14 | L 1.48 | C 1.47 | H 2.82 | D 1.92 | K 1.79 | S 1.85 | P 1.65 | T 1.33 | Y 1.54 | Q 2.06 | M 1.93 | A 2.81 | N 1.83 | F 1.69 | E 1.83 | R 2.25 | W 1.61 | G 2.26
K21: T 1.85 | Q 1.81 | F 2.72 | E 2.08 | N 2.2 | L 2.2 | A 1.69 | V 3.44 | W 2.44 | D 2.6 | G 2.06 | M 2.85 | R 1.31 | P 1.47 | S 1.6 | Y 3.31 | C 1.51 | I 3.25 | H 1.69
H18: M 2.48 | G 1.79 | T 2.13 | E 2.07 | I 2.92 | N 2.09 | C 2.24 | R 1.84 | D 2.1 | W 1.36 | Y 2.35 | F 1.92 | V 1.61 | A 2.38 | Q 1.5 | S 2.72 | K 1.53 | L 2.67 | P 1.48
A22: L 1.58 | K 1.64 | H 1.83 | D 1.9 | G 1.88 | I 1.74 | C 1.81 | F 3.14 | E 1.75
D4: T 1.73 | V 2.09 | S 1.83 | W 1.29 | Y 3.37
